Patent US20260209311A1, “MODIFIED G PROTEIN COUPLED RECEPTOR AND USE THEREOF” (ALPHELIX BIOTECH CO., LTD., priority 2023, published 2026)

How the values were obtained:
MC4R WT [1] = assay: SPR; steady state affinity, 25 C
MC4R WT [2] = assay: SPR; 1:1 kinetic, 25 C

Substance	Kd (MC4R WT [1])	Kd (MC4R WT [2])
Setmelanotide	9.72 nM	35.3 nM
SHU 9119	5.74 nM	0.00837 nM
a-MSH	313 nM	155 nM
